The values below come from US20060106200A1.

In the test the target is full length, processed caspase-9 (residues 1-416) (UniProt P55211). Briefly: gel filtration chromatography of equi-molar Apaf-1 (1-591) and caspase-9. Background: In gel filtration, larger molecules generally elute earlier.
Sequence of full length, processed caspase-9 (residues 1-416) (P55211 whole entry, form in doubt, the tested form may be a part): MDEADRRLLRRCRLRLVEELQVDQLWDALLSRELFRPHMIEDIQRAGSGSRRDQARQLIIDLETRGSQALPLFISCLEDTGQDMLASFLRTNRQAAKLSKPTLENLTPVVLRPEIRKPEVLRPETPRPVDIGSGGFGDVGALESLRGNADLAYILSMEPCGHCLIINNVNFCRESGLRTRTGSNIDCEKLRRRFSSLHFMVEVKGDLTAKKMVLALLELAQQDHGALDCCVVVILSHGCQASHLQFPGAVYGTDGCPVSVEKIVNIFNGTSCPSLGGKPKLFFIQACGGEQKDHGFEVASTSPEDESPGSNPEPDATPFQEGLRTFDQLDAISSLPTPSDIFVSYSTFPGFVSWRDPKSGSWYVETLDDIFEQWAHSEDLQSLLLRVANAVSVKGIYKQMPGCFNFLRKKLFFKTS

“soluble Apaf-1 fragment (residues 1-591 of full length Apaf-1) (from UniProt O14727 1-591)”: the apparent molecular mass of the complex peak on gel filtration is 130 kilodaltons.
